Results: patent publication US10918697B2, “Co-activation of mTOR and STAT3 pathways to promote neuronal survival and regeneration” (Children's Medical Center Corporation, priority 2011, dated 2021)
Entries after “also recorded” stand apart in the source; their conditions may differ.

Assays:
[1] = tested on: retinal ganglion cells (RGCs) / optic nerve axons; details: SOCS3f/f mice, CNTF applied intravitreously; cited from earlier work
[2] = tested on: corticospinal tract (CST) axons; experiment: CST sprouting after intraspinal CNTF injection without pyramidotomy, BDA tracing; type: in vivo, mice
Protocol: For pyramidotomy, mice were anesthetized with ketamine/xylazine. The procedure is similar to that described previously […]. Briefly, an incision was made at the left side of the trachea. Blunt dissection was performed to expose the skull base and a craniotomy in the occipital bone allowed for access to the medullary pyramids. The left pyramid was cut with a fine scalpel medially up to the basilar artery. The wound was dosed in layers with 6.0 sutures. The mice were placed on soft bedding on a warming blanket held at 37° C. until fully awake. We traced the intact CST 4 weeks later with BDA (see below). For CNTF injection into adult SOCS3 f/f mice with neonatal AAV-Cre cortical injection, a laminectomy was performed at C1 and 1 ul of CNTF (10 ug/ml, PeproTech, 450-13) was injected with a nanoliter injector into the ventral side of the dorsal column (0.5 mm deep). BDA tracing was performed 6 weeks later.
To label CST axons by anterograde tracing, a total of 2.0 μl of BDA (10%, Invitrogen, D-1956) was injected into the right sensorimotor cortex at five sites (anterior-posterior coordinates from bregma in mm; 1.0, 0.5, 0, −0.5, −1.0, all at 1.0 mm lateral and at a depth of 0.5 mm). Mice were kept for an additional 2 weeks before being sacrificed.
Mice were given a lethal dose of anesthesia and transcardially perfused with 4% paraformaldehyde. Brains and spinal cords were isolated and post-fixed in the same fixative overnight at 4° C. Tissues were cryoprotected via increasing concentrations of sucrose. After embedding into OCT compound, the samples were snap frozen in dry ice. […]
For the groups of pyramidotomy, digital images of C7 or other levels of the spinal cord transverse sections were collected using a Nikon fluorescence microscope. […]
To quantify the number of sprouting axons, the methods used in previous studies (Liu et al., 2010) were followed. […] Only fibers crossing the three lines were counted in each section. The results were presented after normalization with the number of counted CST fibers at the medulla level. At least three sections were counted for each mouse.

B1: ciliary neurotrophic factor (protein, UniProt P26441 1-200, looked up)
Ciliary neurotrophic factor: MAFTEHSPLTPHRRDLCSRSIWLARKIRSDLTALTESYVKHQGLNKNINLDSADGMPVASTDQWSELTEAERLQENLQAYRTFHVLLARLLEDQQVHFTPTEGDFHQAIHTLLLQVAAFAYQIEELMILLEYKIPRNEADGMPINVGDGGLFEKKLWGLKVLQELSQWTVRSIHDLRFISSHQTGIPARGSHYIANNKKM
effect of intravitreal CNTF on axon regeneration induced by SOCS3 deletion [1]: enhances axon regeneration induced by SOCS3 deletion
CST sprouting at C7 spinal cord level ([2]; SOCS3f/f mice, cortical AAV-Cre at P1, CNTF injected at C1, no injury): but not C7; also recorded: No CST sprouts seen
CST sprouting at C1 spinal cord level ([2]; SOCS3f/f mice, cortical AAV-Cre at P1, CNTF injected into dorsal spinal cord at C1 in adulthood, no injury, vs saline): triggered a significant CST sprouting response; also recorded: promotes sprouting in SOCS3-deleted neurons in the absence of an injury; also recorded: numerous crossing CST axons
extent of CST sprouting compared with left pyramidotomy ([2]; single CNTF injection at C1, SOCS3-deleted mice): less than after left pyramidotomy; also recorded: less pronounced than what is seen after injury
